Numbering of substitutions follows the chain as printed.
T1: human beta-Klotho (KLB) (human, UniProt Q86Z14 53-997)
T1 construct: also called human KLB
T1 sequence (looked up): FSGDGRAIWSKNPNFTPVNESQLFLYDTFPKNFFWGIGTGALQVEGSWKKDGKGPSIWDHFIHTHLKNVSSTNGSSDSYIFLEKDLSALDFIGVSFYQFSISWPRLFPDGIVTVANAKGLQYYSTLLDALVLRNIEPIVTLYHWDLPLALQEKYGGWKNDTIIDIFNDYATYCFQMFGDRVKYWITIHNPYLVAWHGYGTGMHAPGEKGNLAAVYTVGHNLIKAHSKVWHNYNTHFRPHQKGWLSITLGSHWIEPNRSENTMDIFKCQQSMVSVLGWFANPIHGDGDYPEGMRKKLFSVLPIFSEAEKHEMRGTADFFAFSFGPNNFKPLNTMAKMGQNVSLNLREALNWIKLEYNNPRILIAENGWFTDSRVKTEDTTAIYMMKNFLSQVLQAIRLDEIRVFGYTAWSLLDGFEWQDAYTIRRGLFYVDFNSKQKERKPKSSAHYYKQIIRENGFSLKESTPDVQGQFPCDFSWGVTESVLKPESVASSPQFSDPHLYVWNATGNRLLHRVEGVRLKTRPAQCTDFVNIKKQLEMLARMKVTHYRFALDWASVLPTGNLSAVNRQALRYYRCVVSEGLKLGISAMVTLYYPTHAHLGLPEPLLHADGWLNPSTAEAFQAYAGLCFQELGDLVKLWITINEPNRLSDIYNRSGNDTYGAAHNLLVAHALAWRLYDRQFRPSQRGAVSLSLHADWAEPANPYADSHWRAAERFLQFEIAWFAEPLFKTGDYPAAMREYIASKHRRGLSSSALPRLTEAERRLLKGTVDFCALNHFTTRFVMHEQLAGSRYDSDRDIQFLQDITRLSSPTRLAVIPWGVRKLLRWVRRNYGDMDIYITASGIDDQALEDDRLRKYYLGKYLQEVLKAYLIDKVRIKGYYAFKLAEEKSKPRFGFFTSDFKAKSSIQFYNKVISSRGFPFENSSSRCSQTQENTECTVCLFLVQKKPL

B1: 16H7 variant, light chain G23S (antibody, human IgG4 S228P, lambda, V domains shown)
VH: not shown
VL: SYVLTQPPSVSVAPGQTARITCSGNNIGSESVHWYQQKPGQAPVLVVYDDSDRPSGIPERFSGSNSGNTATLTISRVEAGDEADYYCQVWDGNSDHVVFGGGTKLTVLG
notes: IgG4 backbone
B2: 16H7 variant, light chain G24K (antibody, human IgG4 S228P, lambda, V domains shown)
VH: not shown
VL: B1 VL with S23G, G24K
notes: IgG4 backbone
B3: 16H7 variant, light chain G24M (antibody, human IgG4 S228P, lambda, V domains shown)
VH: not shown
VL: B1 VL with S23G, G24M
notes: IgG4 backbone
B4: 16H7 variant, light chain G24C (antibody, human IgG4 S228P, lambda, V domains shown)
VH: not shown
VL: B1 VL with S23G, G24C
notes: IgG4 backbone
B5: 16H7 variant, light chain G24F (antibody, human IgG4 S228P, lambda, V domains shown)
VH: not shown
VL: B1 VL with S23G, G24F
notes: IgG4 backbone
B6: 16H7 variant, light chain G24R (antibody, human IgG4 S228P, lambda, V domains shown)
VH: not shown
VL: B1 VL with S23G, G24R
notes: IgG4 backbone
B7: 16H7 variant, light chain G24N (antibody, human IgG4 S228P, lambda, V domains shown)
VH: not shown
VL: B1 VL with S23G, G24N
notes: IgG4 backbone
B8: 16H7 variant, light chain G23T (antibody, human IgG4 S228P, lambda, V domains shown)
VH: not shown
VL: B1 VL with S23T
notes: IgG4 backbone
B9: 16H7 variant, light chain G23V (antibody, human IgG4 S228P, lambda, V domains shown)
VH: not shown
VL: B1 VL with S23V
notes: IgG4 backbone
B10: 16H7 variant, light chain G24L (antibody, human IgG4 S228P, lambda, V domains shown)
VH: not shown
VL: B1 VL with S23G, G24L
notes: IgG4 backbone
B11: 16H7 variant, light chain G24H (antibody, human IgG4 S228P, lambda, V domains shown)
VH: not shown
VL: B1 VL with S23G, G24H
notes: IgG4 backbone
B12: 16H7 variant, light chain G24I (antibody, human IgG4 S228P, lambda, V domains shown)
VH: not shown
VL: B1 VL with S23G, G24I
notes: IgG4 backbone
B13: 16H7 variant, light chain G24E (antibody, human IgG4 S228P, lambda, V domains shown)
VH: not shown
VL: B1 VL with S23G, G24E
notes: IgG4 backbone
B14: 16H7 variant, light chain G24A (antibody, human IgG4 S228P, lambda, V domains shown)
VH: not shown
VL: B1 VL with S23G, G24A
notes: IgG4 backbone
B15: 16H7 variant, light chain G23Y (antibody, human IgG4 S228P, lambda, V domains shown)
VH: not shown
VL: B1 VL with S23Y
notes: IgG4 backbone

Tests used:
[1] = biological target: human FGFR1c/KLB cell surface receptor complex on iLite FGF21 reporter cells (human, UniProt P11362 22-822; Q86Z14 1-1044); test: cell-based or functional assay; for Mean E max (%): reference of the scale not given here
Sequence of human FGFR1c/KLB cell surface receptor complex on iLite FGF21 reporter cells (P11362 22-822, chain 1 of 2): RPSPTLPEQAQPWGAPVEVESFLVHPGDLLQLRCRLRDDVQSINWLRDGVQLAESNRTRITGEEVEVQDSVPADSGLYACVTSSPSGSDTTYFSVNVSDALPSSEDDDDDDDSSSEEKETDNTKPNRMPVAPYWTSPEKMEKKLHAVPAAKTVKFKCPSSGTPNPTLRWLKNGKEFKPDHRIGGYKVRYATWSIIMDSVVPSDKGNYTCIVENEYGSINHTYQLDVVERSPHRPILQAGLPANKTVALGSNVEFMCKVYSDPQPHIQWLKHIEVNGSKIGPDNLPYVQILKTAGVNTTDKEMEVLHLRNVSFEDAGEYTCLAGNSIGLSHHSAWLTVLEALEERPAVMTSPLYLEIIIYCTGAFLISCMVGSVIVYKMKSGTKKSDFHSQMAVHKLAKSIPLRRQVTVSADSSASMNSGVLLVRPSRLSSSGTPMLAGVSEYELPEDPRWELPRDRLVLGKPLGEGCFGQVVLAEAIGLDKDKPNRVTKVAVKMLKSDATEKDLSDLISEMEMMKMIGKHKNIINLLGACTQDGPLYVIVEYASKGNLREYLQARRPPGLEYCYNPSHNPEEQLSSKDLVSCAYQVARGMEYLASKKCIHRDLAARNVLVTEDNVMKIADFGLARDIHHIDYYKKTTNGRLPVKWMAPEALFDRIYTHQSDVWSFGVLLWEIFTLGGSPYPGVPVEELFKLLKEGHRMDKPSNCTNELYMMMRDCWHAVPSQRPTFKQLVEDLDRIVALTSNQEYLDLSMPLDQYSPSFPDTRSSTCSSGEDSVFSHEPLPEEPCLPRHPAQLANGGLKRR
Sequence of human FGFR1c/KLB cell surface receptor complex on iLite FGF21 reporter cells (Q86Z14 whole entry, chain 2 of 2): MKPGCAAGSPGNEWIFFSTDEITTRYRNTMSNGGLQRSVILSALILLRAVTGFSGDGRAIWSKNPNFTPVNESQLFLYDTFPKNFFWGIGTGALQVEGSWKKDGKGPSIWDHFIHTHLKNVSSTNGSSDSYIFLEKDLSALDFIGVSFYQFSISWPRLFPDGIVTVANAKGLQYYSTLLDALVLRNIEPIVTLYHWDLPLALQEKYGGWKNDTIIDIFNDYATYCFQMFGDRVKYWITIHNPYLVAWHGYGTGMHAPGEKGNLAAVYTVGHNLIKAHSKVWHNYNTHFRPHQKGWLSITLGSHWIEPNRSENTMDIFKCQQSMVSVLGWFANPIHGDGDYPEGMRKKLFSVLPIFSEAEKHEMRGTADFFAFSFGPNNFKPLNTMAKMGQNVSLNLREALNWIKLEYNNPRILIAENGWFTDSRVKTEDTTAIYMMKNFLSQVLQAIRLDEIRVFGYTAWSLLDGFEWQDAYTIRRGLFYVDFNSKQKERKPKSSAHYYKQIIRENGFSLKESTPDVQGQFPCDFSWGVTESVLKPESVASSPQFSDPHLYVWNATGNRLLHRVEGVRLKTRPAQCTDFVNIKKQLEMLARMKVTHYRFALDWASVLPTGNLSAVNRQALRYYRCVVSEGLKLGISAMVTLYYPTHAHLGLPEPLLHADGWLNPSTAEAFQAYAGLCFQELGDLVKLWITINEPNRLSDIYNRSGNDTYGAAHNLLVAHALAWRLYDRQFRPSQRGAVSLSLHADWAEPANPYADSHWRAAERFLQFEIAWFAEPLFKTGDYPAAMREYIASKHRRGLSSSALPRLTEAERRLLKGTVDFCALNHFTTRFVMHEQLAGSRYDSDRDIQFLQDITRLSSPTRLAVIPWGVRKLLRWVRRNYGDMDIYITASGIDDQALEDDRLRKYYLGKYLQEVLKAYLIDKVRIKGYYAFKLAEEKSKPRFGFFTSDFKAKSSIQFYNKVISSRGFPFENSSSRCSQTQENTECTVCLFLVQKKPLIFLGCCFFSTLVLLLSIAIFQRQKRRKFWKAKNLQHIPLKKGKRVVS

human beta-Klotho (KLB) = biological target: T1, human beta-Klotho (KLB); test: BLI off-rate screen (Octet), Ab captured via Fc;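 note: antibody supernatants applied at 25 µg/mL, dissociation monitored over 1800 s in D-PBS with 0.1% BSA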

Binder	Mean E max (%) [1] [%]	Mean EC50 [1] [nM]	koff (human beta-Klotho (KLB)) [s⁻¹]
B1	120	0.143	1e-07
B2	102	0.143	3.9e-05
B3	109	0.115	4.8e-05
B4	104	0.106	2.2e-05
B5	107	0.151	2.3e-05
B6	98	0.106	1.5e-06
B7	103	0.114	1.7e-05
B8	112	0.105	1.5e-05
B9	93	0.105	3.9e-05
B10	108	0.161	3.4e-05
B11	99	0.125	2.7e-05
B12	109	0.143	2.7e-05
B13	112	0.118	2.7e-05
B14	95	0.094	3.6e-05
B15	107	0.124	4.2e-05

— patent publication US20220010021A1 (Sanofi, published 2022)
